Reference: the supplement of paper PMC9732359
± gives the uncertainty stated by the source.

Assay: protein stability index of a GFP-peptide fusion (yeast GPS) (PSI 1-4); higher = more stable; sorted into four equal gates, so the index is relative within each strain
Outline: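 Sequencing reads from sorted gates were used to score each peptide. The library consisted of tiled 17-residue yeast protein peptides fused downstream of GFP on a Cherry-expressing plasmid, pooled and carried in yeast. Mid-log cultures in leucine-free medium were split into four equal gates by GFP/Cherry ratio, and each gate's plasmids were PCR-amplified and Illumina-sequenced. The protein stability index adds up, over all gates, the read frequency multiplied by the gate number.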

| Sequence | protein stability index (doa10∆) | protein stability index (pdr5∆) | protein stability index (san1∆) | protein stability index (ubr1∆) |
| --- | --- | --- | --- | --- |
| TGPFKVNGVPLRRVNAR [RPL6B] | 2.26 ± 0.13 | 2.49 ± 0.099 | 2.56 ± 0.095 | 2.72 ± 0.061 |
| RLPHQFRPIEIFTDFLP [RRP42] | 1.86 ± 0.068 | 1.96 ± 0.07 | 2.03 ± 0.078 | 2.21 ± 0.066 |
| FNDFSNIKTSEWDLYPQ [REC8] | 2.84 ± 0.082 | 2.92 ± 0.053 | 2.78 ± 0.075 | 3.15 ± 0.082 |
| LQIESVTKETVHPRKSY [PRP8] |  | 3.02 ± 0.13 | 2.97 ± 0.054 | 3.11 ± 0.11 |
| IDEPIKSIMDGIHDGHI [FAS1] | 1.97 ± 0.044 | 1.87 ± 0.059 | 1.52 ± 0.094 | 1.57 ± 0.038 |
| PFMLQWGIPLIKELRSK [FAS1] | 1.69 ± 0.069 | 1.63 ± 0.074 | 1.44 ± 0.1 | 1.58 ± 0.049 |
| KIQQHNTILNSSSDFRL [BRR2] | 2.71 ± 0.06 | 2.89 ± 0.067 | 2.89 ± 0.041 | 2.78 ± 0.046 |
| MVAYSPIIATYGNRAEQ [SRP68] | 2.18 ± 0.085 | 2.54 ± 0.059 | 2.7 ± 0.082 | 2.78 ± 0.073 |
| ARYVIATSTKVSVEGVN [RPL6A] | 1.62 ± 0.051 | 1.52 ± 0.048 | 1.47 ± 0.11 | 1.27 ± 0.034 |
| KLRDHEPDLESQISKAE [SMC4] | 2.07 ± 0.13 | 1.31 ± 0.21 | 3.16 ± 0.16 |  |
| MNIIQQQQQQNTNNNDT [GAL11] | 2.43 ± 0.042 | 2.63 ± 0.047 | 2.46 ± 0.044 | 2.52 ± 0.04 |
| AGALNLASPEVKVHMDS [DIS3] | 3.06 ± 0.083 | 3.4 ± 0.069 | 2.99 ± 0.07 | 3.04 ± 0.052 |
| LFHSCTRIQYVDFACCT [GRR1] | 2.56 ± 0.12 | 2.44 ± 0.067 | 2.2 ± 0.075 | 2.21 ± 0.063 |
| LLVVIFKKTLRSRISSP [SRB4] | 1.53 ± 0.085 | 1.66 ± 0.094 | 1.77 ± 0.13 | 1.95 ± 0.11 |
| ETGYMSRRLMKSLEDLS [RPO31] | 2.45 ± 0.12 | 3.13 ± 0.25 | 3.02 ± 0.15 |  |
| RIVGSELIQKYLGDGPR [RPT2] | 2.21 ± 0.14 | 3.14 ± 0.16 | 3.33 ± 0.27 | 3.11 ± 0.13 |
| KFILSGFIFTSMILEAI [RRI2] | 1.58 ± 0.06 | 1.2 ± 0.035 | 1.17 ± 0.11 | 1.11 ± 0.048 |
| QQQQAAALANANNNINS [SWI1] | 2.51 ± 0.058 | 2.3 ± 0.053 | 2.46 ± 0.047 | 2.65 ± 0.06 |
| ISPSAPSKDSFTKYKPA [YAR002W/NUP60] | 2.65 ± 0.079 | 2.9 ± 0.069 | 2.69 ± 0.094 | 2.98 ± 0.042 |
| KVSSAEYYAKKRAFTKK [RPL16A] | 3 ± 0.098 | 3.32 ± 0.099 | 2.98 ± 0.092 | 3.36 ± 0.082 |
| LGLGIAFAGSKNDEVLG [RPN1] | 3.09 ± 0.3 | 2.94 ± 0.15 | 2.81 ± 0.26 | 3.04 ± 0.14 |
| VDFQNDLKDILEKVVPL [BRR2] | 3.17 ± 0.18 | 2.88 ± 0.13 | 2.9 ± 0.15 | 2.69 ± 0.066 |
| VTNFNSTNEDQNNSKHT [SRB5] | 3.18 ± 0.16 | 2.44 ± 0.15 | 3.06 ± 0.18 | 2.71 ± 0.076 |
| FSNVELPQCIIPSSYIK [ARP7] | 2.38 ± 0.042 | 2.38 ± 0.041 | 2.28 ± 0.051 | 2.45 ± 0.032 |
| MYGLTMEWPKDMLKYKE [ITC1] | 3.53 ± 0.17 | 3.1 ± 0.28 |  | 3.07 ± 0.2 |
| EQHHINNLKNSGNSANN [GAL11] | 2.41 ± 0.14 | 2.09 ± 0.088 | 2.39 ± 0.1 | 2.32 ± 0.13 |
| KKFVSQIQKNVDLLQFP [POP3] | 2.65 ± 0.064 | 2.23 ± 0.073 | 3.34 ± 0.065 | 2.64 ± 0.053 |
